Source: paper PMC10282599, “Al-induced CsUGT84J2 enhances flavonol and auxin accumulation to promote root growth in tea plants” (Horticulture Research, 2023)

Experiments:
Assay in all cases: HPLC of glucoside product
Assay type in all cases: biochemical, Camellia sinensis
[1] = substrate: O=c1c(O)c(-c2ccc(O)cc2)oc2cc(O)cc(O)c12; settings: UDP-glucose as sugar donor; optimum pH 9.5, 40 °C; pH 9.5; 40.0 °C
[2] = substrate: O=C(O)Cc1c[nH]c2ccccc12; settings: UDP-glucose as sugar donor; optimum pH 6.5, 30 °C; pH 6.5; 30.0 °C
[3] = substrate: O=C(O)/C=C/c1ccc(O)cc1; settings: UDP-glucose as sugar donor; optimum pH 6.5, 40 °C; pH 6.5; 40.0 °C

B1: rCsUGT84J2 (TEA000239) (Camellia sinensis) (protein)
chain: MAAMEKKEEIHVLMVAFSSQGHINPMLRLAKRLHSKGLHVTLATTEIARHRMLTSSSATTTAVAANSIDGISLAFFSDGLSLDYDRKTNLDHYMDSLGRAGPANLSSIILHHHSHGGRKFSCIVTNPFIPWAADVAAEHGIPCALLWIQPCSLYSIYYRFYNHLNQFPSSANPNMSVELPGLPLLNTEDLPSFVLPSNPFGSFPKLFCGLFQNMQKMKWVLANSFHELESQAIDSMFDIHPVLPIGPLVPPSILGEDQAVDAGVEMWKSEDNCIEWLDQQQPNSVIYVSFGSVVILSPLQMESIATGLKNCNRPFLWVVKKSDYTAKEGEGQLPLGFLEETKGRGLVVQWSPQIKVLMNPAVGCFLTHCGWNSMLETIAAGVPVIAYPQWTDQPTNAKLMAEVLRVGVRLRPNQDGVVTNEEVERRIEDVMCGPEAEEFREKAAELKVAARVAVADGGSSDRNIQLFVDEIIGDSST
[1]
  Km: 0.127 µM
[2]
  Km: 0.522 µM
[3]
  Km: 0.243 µM
